Results taken from patent US20240270846A1 (published 2024).

molecular target: T1, CD3 epsilon homodimer protein (UniProt P07766 23-126); assay: SPR (Biacore T200), CD3e homodimer on CM4 chip, antibody as analyte; KD ratio vs unaltered GLS3000;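 further: CD3 epsilon homodimer amine-coupled to the sensor surface, antibodies injected as analyte at 25 °C with HBS-EP+ running buffer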
T1 construct: also called CD3 (CD3 epsilon)
T1 sequence (P07766 23-126): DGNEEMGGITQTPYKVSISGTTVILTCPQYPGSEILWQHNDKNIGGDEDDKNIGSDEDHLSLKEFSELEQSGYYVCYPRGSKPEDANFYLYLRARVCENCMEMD
Procedure: An appropriate amount of CD3 epsilon homodimer protein was immobilized onto Sensor chip CM4 (GE Healthcare Japan Corp.) by the amine coupling method. Then, the antibody having an appropriate concentration was injected thereto as an analyte and allowed to interact with the CD3 epsilon homodimer protein on the sensor chip. Then, the sensor chip was regenerated by the injection of 10 mmol/L glycine-HCl (pH 1.5). The assay was conducted at 25 degrees C., and HBS-EP+(GE Healthcare Japan Corp.) was used as a running buffer. […] Each parameter was calculated using Biacore T200 Evaluation Software (GE Healthcare Japan Corp.).
Specifically, when the amount of the GLS3000-containing antibody bound was defined as X and the amount of the L chain one-amino acid altered form bound was defined as Y, a value of Z (ratio of amounts bound)=Y/X was used.

| Binder | KD ratio to GLS3000 [ratio] |
| --- | --- |
| CE115HA000/GLS3000 Y32P one-arm antibody (antibody, human IgG1, kappa, L234A L235A, N297A, name in Kabat numbering, one-arm IgG1) heavy: QVQLVESGGGVVQPGRSLRLSCAASGFTFSNAWMHWVRQAPGKGLEWVAQIKAKSNNYATYYAESVKGRFTISRDDSKNSLYLQMNSLKTEDTAVYYCRYVHYGAYYGVDAWGQGTTVTVSSASTKGPSVFPLAPSSKSTSGGTAALGCLVKDYFPEPVTVSWNSGALTSGVHTFPAVLQSSGLYSLSSVVTVPSSSLGTQTYICNVNHKPSNTKVDKKVEPKSCDKTHTCPPCPAPEAAGGPSVFLFPPKPKDTLMISRTPEVTCVVVDVSHEDPEVKFNWYVDGVEVHNAKTKPREEQYASTYRVVSVLTVLHQDWLNGKEYKCKVSNKALPAPIEKTISKAKGQPREPQVYTLPPSRCELTKNQVSLSCAVKGFYPSDIAVEWESNGQPENNYKTTPPVLDSDGSFFLVSKLTVDKSRWQQGNVFSCSVMHEALHNHYTQKSLSLSPDYKDDDDK EPKSSDKTHTCPPCPAPELLGGPSVFLFPPKPKDTLMISRTPEVTCVVVDVSHEDPEVKFNWYVDGVEVHNAKTKPREEQYNSTYRVVSVLTVLHQDWLNGKEYKCKVSNKALPAPIEKTISKAKGQPREPQVCTLPPSRDELTKNQVSLWCLVKGFYPSDIAVEWESNGQPENNYKTTPPVLDSDGSFFLYSKLTVDKSRWQQGNVFSCSVMHEALHNRYTQKSLSLSP light: DIVMTQSPLSLPVTPGEPASISCRSSQSLVHSNRNTPLHWYQQKPGQAPRLLIYKVSNRFSGVPDRFSGSGSGTDFTLKISRVEAEDVGVYYCGQGTQVPYTFGQGTKLEIKRTVAAPSVFIFPPSDEQLKSGTASVVCLLNNFYPREAKVQWKVDNALQSGNSQESVTEQDSKDSTYSLSSTLTLSKADYEKHKVYACEVTHQGLSSPVTKSFNRGEC | 62 |
| CE115HA000/GLS3000 Y96D one-arm antibody (antibody, human IgG1, kappa, L234A L235A, N297A, name in Kabat numbering, one-arm IgG1) heavy: QVQLVESGGGVVQPGRSLRLSCAASGFTFSNAWMHWVRQAPGKGLEWVAQIKAKSNNYATYYAESVKGRFTISRDDSKNSLYLQMNSLKTEDTAVYYCRYVHYGAYYGVDAWGQGTTVTVSSASTKGPSVFPLAPSSKSTSGGTAALGCLVKDYFPEPVTVSWNSGALTSGVHTFPAVLQSSGLYSLSSVVTVPSSSLGTQTYICNVNHKPSNTKVDKKVEPKSCDKTHTCPPCPAPEAAGGPSVFLFPPKPKDTLMISRTPEVTCVVVDVSHEDPEVKFNWYVDGVEVHNAKTKPREEQYASTYRVVSVLTVLHQDWLNGKEYKCKVSNKALPAPIEKTISKAKGQPREPQVYTLPPSRCELTKNQVSLSCAVKGFYPSDIAVEWESNGQPENNYKTTPPVLDSDGSFFLVSKLTVDKSRWQQGNVFSCSVMHEALHNHYTQKSLSLSPDYKDDDDK EPKSSDKTHTCPPCPAPELLGGPSVFLFPPKPKDTLMISRTPEVTCVVVDVSHEDPEVKFNWYVDGVEVHNAKTKPREEQYNSTYRVVSVLTVLHQDWLNGKEYKCKVSNKALPAPIEKTISKAKGQPREPQVCTLPPSRDELTKNQVSLWCLVKGFYPSDIAVEWESNGQPENNYKTTPPVLDSDGSFFLYSKLTVDKSRWQQGNVFSCSVMHEALHNRYTQKSLSLSP light: DIVMTQSPLSLPVTPGEPASISCRSSQSLVHSNRNTYLHWYQQKPGQAPRLLIYKVSNRFSGVPDRFSGSGSGTDFTLKISRVEAEDVGVYYCGQGTQVPDTFGQGTKLEIKRTVAAPSVFIFPPSDEQLKSGTASVVCLLNNFYPREAKVQWKVDNALQSGNSQESVTEQDSKDSTYSLSSTLTLSKADYEKHKVYACEVTHQGLSSPVTKSFNRGEC | 40.9 |
| CE115HA000/GLS3000 Y96F one-arm antibody (antibody, human IgG1, kappa, L234A L235A, N297A, name in Kabat numbering, one-arm IgG1) heavy: QVQLVESGGGVVQPGRSLRLSCAASGFTFSNAWMHWVRQAPGKGLEWVAQIKAKSNNYATYYAESVKGRFTISRDDSKNSLYLQMNSLKTEDTAVYYCRYVHYGAYYGVDAWGQGTTVTVSSASTKGPSVFPLAPSSKSTSGGTAALGCLVKDYFPEPVTVSWNSGALTSGVHTFPAVLQSSGLYSLSSVVTVPSSSLGTQTYICNVNHKPSNTKVDKKVEPKSCDKTHTCPPCPAPEAAGGPSVFLFPPKPKDTLMISRTPEVTCVVVDVSHEDPEVKFNWYVDGVEVHNAKTKPREEQYASTYRVVSVLTVLHQDWLNGKEYKCKVSNKALPAPIEKTISKAKGQPREPQVYTLPPSRCELTKNQVSLSCAVKGFYPSDIAVEWESNGQPENNYKTTPPVLDSDGSFFLVSKLTVDKSRWQQGNVFSCSVMHEALHNHYTQKSLSLSPDYKDDDDK EPKSSDKTHTCPPCPAPELLGGPSVFLFPPKPKDTLMISRTPEVTCVVVDVSHEDPEVKFNWYVDGVEVHNAKTKPREEQYNSTYRVVSVLTVLHQDWLNGKEYKCKVSNKALPAPIEKTISKAKGQPREPQVCTLPPSRDELTKNQVSLWCLVKGFYPSDIAVEWESNGQPENNYKTTPPVLDSDGSFFLYSKLTVDKSRWQQGNVFSCSVMHEALHNRYTQKSLSLSP light: DIVMTQSPLSLPVTPGEPASISCRSSQSLVHSNRNTYLHWYQQKPGQAPRLLIYKVSNRFSGVPDRFSGSGSGTDFTLKISRVEAEDVGVYYCGQGTQVPFTFGQGTKLEIKRTVAAPSVFIFPPSDEQLKSGTASVVCLLNNFYPREAKVQWKVDNALQSGNSQESVTEQDSKDSTYSLSSTLTLSKADYEKHKVYACEVTHQGLSSPVTKSFNRGEC | 0.86 |
| CE115HA000/GLS3000 Y96H one-arm antibody (antibody, human IgG1, kappa, L234A L235A, N297A, name in Kabat numbering, one-arm IgG1) heavy: QVQLVESGGGVVQPGRSLRLSCAASGFTFSNAWMHWVRQAPGKGLEWVAQIKAKSNNYATYYAESVKGRFTISRDDSKNSLYLQMNSLKTEDTAVYYCRYVHYGAYYGVDAWGQGTTVTVSSASTKGPSVFPLAPSSKSTSGGTAALGCLVKDYFPEPVTVSWNSGALTSGVHTFPAVLQSSGLYSLSSVVTVPSSSLGTQTYICNVNHKPSNTKVDKKVEPKSCDKTHTCPPCPAPEAAGGPSVFLFPPKPKDTLMISRTPEVTCVVVDVSHEDPEVKFNWYVDGVEVHNAKTKPREEQYASTYRVVSVLTVLHQDWLNGKEYKCKVSNKALPAPIEKTISKAKGQPREPQVYTLPPSRCELTKNQVSLSCAVKGFYPSDIAVEWESNGQPENNYKTTPPVLDSDGSFFLVSKLTVDKSRWQQGNVFSCSVMHEALHNHYTQKSLSLSPDYKDDDDK EPKSSDKTHTCPPCPAPELLGGPSVFLFPPKPKDTLMISRTPEVTCVVVDVSHEDPEVKFNWYVDGVEVHNAKTKPREEQYNSTYRVVSVLTVLHQDWLNGKEYKCKVSNKALPAPIEKTISKAKGQPREPQVCTLPPSRDELTKNQVSLWCLVKGFYPSDIAVEWESNGQPENNYKTTPPVLDSDGSFFLYSKLTVDKSRWQQGNVFSCSVMHEALHNRYTQKSLSLSP light: DIVMTQSPLSLPVTPGEPASISCRSSQSLVHSNRNTYLHWYQQKPGQAPRLLIYKVSNRFSGVPDRFSGSGSGTDFTLKISRVEAEDVGVYYCGQGTQVPHTFGQGTKLEIKRTVAAPSVFIFPPSDEQLKSGTASVVCLLNNFYPREAKVQWKVDNALQSGNSQESVTEQDSKDSTYSLSSTLTLSKADYEKHKVYACEVTHQGLSSPVTKSFNRGEC | 80.3 |
| CE115HA000/GLS3000 Y96E one-arm antibody (antibody, human IgG1, kappa, L234A L235A, N297A, name in Kabat numbering, one-arm IgG1) heavy: QVQLVESGGGVVQPGRSLRLSCAASGFTFSNAWMHWVRQAPGKGLEWVAQIKAKSNNYATYYAESVKGRFTISRDDSKNSLYLQMNSLKTEDTAVYYCRYVHYGAYYGVDAWGQGTTVTVSSASTKGPSVFPLAPSSKSTSGGTAALGCLVKDYFPEPVTVSWNSGALTSGVHTFPAVLQSSGLYSLSSVVTVPSSSLGTQTYICNVNHKPSNTKVDKKVEPKSCDKTHTCPPCPAPEAAGGPSVFLFPPKPKDTLMISRTPEVTCVVVDVSHEDPEVKFNWYVDGVEVHNAKTKPREEQYASTYRVVSVLTVLHQDWLNGKEYKCKVSNKALPAPIEKTISKAKGQPREPQVYTLPPSRCELTKNQVSLSCAVKGFYPSDIAVEWESNGQPENNYKTTPPVLDSDGSFFLVSKLTVDKSRWQQGNVFSCSVMHEALHNHYTQKSLSLSPDYKDDDDK EPKSSDKTHTCPPCPAPELLGGPSVFLFPPKPKDTLMISRTPEVTCVVVDVSHEDPEVKFNWYVDGVEVHNAKTKPREEQYNSTYRVVSVLTVLHQDWLNGKEYKCKVSNKALPAPIEKTISKAKGQPREPQVCTLPPSRDELTKNQVSLWCLVKGFYPSDIAVEWESNGQPENNYKTTPPVLDSDGSFFLYSKLTVDKSRWQQGNVFSCSVMHEALHNRYTQKSLSLSP light: DIVMTQSPLSLPVTPGEPASISCRSSQSLVHSNRNTYLHWYQQKPGQAPRLLIYKVSNRFSGVPDRFSGSGSGTDFTLKISRVEAEDVGVYYCGQGTQVPETFGQGTKLEIKRTVAAPSVFIFPPSDEQLKSGTASVVCLLNNFYPREAKVQWKVDNALQSGNSQESVTEQDSKDSTYSLSSTLTLSKADYEKHKVYACEVTHQGLSSPVTKSFNRGEC | 46.8 |
